Measurements from the supplement of paper PMC10567573.

B1: SPATS1 (parent)
chain: YPEQSKGFHKAGSMLPPVNFSIVP

Variants of: B1
Assay: protein stability index of a GFP-peptide fusion (GPS, HEK-293T) (PSI 1-6); higher = more stable
Conditions: c terminus: a fixed tail appended
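Also: lentivirally expressed fusions sorted by FACS into six bins by GFP to DsRed ratio, PSI derived from sequencing read proportions per bin multiplied by bin number.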

Question: For YPEGSKGFHKAGSMLPPVNFSIVP [Q4G], which protein stability index is on record?
Answer: 1.89

Question: Which protein stability index does the source give for YPEFSKGFHKAGSMLPPVNFSIVP [Q4F] here?
Answer: 3.4

Question: For YPEYSKGFHKAGSMLPPVNFSIVP [Q4Y], which protein stability index is on record?
Answer: 2.56

Question: For YPECSKGFHKAGSMLPPVNFSIVP [Q4C], which protein stability index is on record?
Answer: 1.8

Question: With YPEKSKGFHKAGSMLPPVNFSIVP [Q4K] as the variant, how does the protein stability index read?
Answer: 1.77

Question: With YPENSKGFHKAGSMLPPVNFSIVP [Q4N] as the variant, how does the protein stability index read?
Answer: 1.89

Question: With YPEMSKGFHKAGSMLPPVNFSIVP [Q4M] as the variant, how does the protein stability index read?
Answer: 1.39

Question: With YPEDSKGFHKAGSMLPPVNFSIVP [Q4D] as the variant, how does the protein stability index read?
Answer: 2.71

Question: With YPERSKGFHKAGSMLPPVNFSIVP [Q4R] as the variant, how does the protein stability index read?
Answer: 1.79

Question: With YPEVSKGFHKAGSMLPPVNFSIVP [Q4V] as the variant, how does the protein stability index read?
Answer: 2.43

Question: Which protein stability index does the source give for YPEHSKGFHKAGSMLPPVNFSIVP [Q4H] here?
Answer: 2.29

Question: Which protein stability index does the source give for YPETSKGFHKAGSMLPPVNFSIVP [Q4T] here?
Answer: 1.8

Question: With YPEASKGFHKAGSMLPPVNFSIVP [Q4A] as the variant, how does the protein stability index read?
Answer: 3.18

Question: With YPEWSKGFHKAGSMLPPVNFSIVP [Q4W] as the variant, how does the protein stability index read?
Answer: 3.72

Question: Which protein stability index does the source give for YPEQSQGFHKAGSMLPPVNFSIVP [K6Q] here?
Answer: 1.71

Question: Which protein stability index does the source give for YPEQSCGFHKAGSMLPPVNFSIVP [K6C] here?
Answer: 2.38

Question: With YPEQSIGFHKAGSMLPPVNFSIVP [K6I] as the variant, how does the protein stability index read?
Answer: 1.86

Question: For YPEQSEGFHKAGSMLPPVNFSIVP [K6E], which protein stability index is on record?
Answer: 2.41

Question: Which protein stability index does the source give for YPEQSTGFHKAGSMLPPVNFSIVP [K6T] here?
Answer: 1.92

Question: For YPEQSDGFHKAGSMLPPVNFSIVP [K6D], which protein stability index is on record?
Answer: 2.29

Question: For YPEQSSGFHKAGSMLPPVNFSIVP [K6S], which protein stability index is on record?
Answer: 2.56

Question: Which protein stability index does the source give for YPEQSLGFHKAGSMLPPVNFSIVP [K6L] here?
Answer: 1.75

Question: Which protein stability index does the source give for YPEQSNGFHKAGSMLPPVNFSIVP [K6N] here?
Answer: 1.91

Question: Which protein stability index does the source give for YPEQSMGFHKAGSMLPPVNFSIVP [K6M] here?
Answer: 2.26

Question: For YPEQSFGFHKAGSMLPPVNFSIVP [K6F], which protein stability index is on record?
Answer: 2.1

Question: Which protein stability index does the source give for YPEQSPGFHKAGSMLPPVNFSIVP [K6P] here?
Answer: 2.17

Question: Which protein stability index does the source give for YPEQSVGFHKAGSMLPPVNFSIVP [K6V] here?
Answer: 1.67

Question: For YPEQSYGFHKAGSMLPPVNFSIVP [K6Y], which protein stability index is on record?
Answer: 1.93

Question: For YPEQSWGFHKAGSMLPPVNFSIVP [K6W], which protein stability index is on record?
Answer: 1.9

Question: Which protein stability index does the source give for YPEQSAGFHKAGSMLPPVNFSIVP [K6A] here?
Answer: 1.92

Question: With YPEQSHGFHKAGSMLPPVNFSIVP [K6H] as the variant, how does the protein stability index read?
Answer: 1.71

Question: Which protein stability index does the source give for YPEQSRGFHKAGSMLPPVNFSIVP [K6R] here?
Answer: 1.71

Question: For YPEQSGGFHKAGSMLPPVNFSIVP [K6G], which protein stability index is on record?
Answer: 2.09

Question: For YPEQYKGFHKAGSMLPPVNFSIVP [S5Y], which protein stability index is on record?
Answer: 2.1

Question: With YPEQGKGFHKAGSMLPPVNFSIVP [S5G] as the variant, how does the protein stability index read?
Answer: 2.52

Question: For YPEQTKGFHKAGSMLPPVNFSIVP [S5T], which protein stability index is on record?
Answer: 2.23

Question: Which protein stability index does the source give for YPEQMKGFHKAGSMLPPVNFSIVP [S5M] here?
Answer: 2.37

Question: For YPEQRKGFHKAGSMLPPVNFSIVP [S5R], which protein stability index is on record?
Answer: 2.67

Question: Which protein stability index does the source give for YPEQFKGFHKAGSMLPPVNFSIVP [S5F] here?
Answer: 2.3

Question: For YPEQIKGFHKAGSMLPPVNFSIVP [S5I], which protein stability index is on record?
Answer: 2.2

Question: For YPEQKKGFHKAGSMLPPVNFSIVP [S5K], which protein stability index is on record?
Answer: 2.49

Question: For YPEQWKGFHKAGSMLPPVNFSIVP [S5W], which protein stability index is on record?
Answer: 2.18

Question: For YPEQNKGFHKAGSMLPPVNFSIVP [S5N], which protein stability index is on record?
Answer: 1.99

Question: Which protein stability index does the source give for YPEQHKGFHKAGSMLPPVNFSIVP [S5H] here?
Answer: 2.1

Question: For YPEQDKGFHKAGSMLPPVNFSIVP [S5D], which protein stability index is on record?
Answer: 2.74

Question: With YPEQVKGFHKAGSMLPPVNFSIVP [S5V] as the variant, how does the protein stability index read?
Answer: 2.45

Question: Which protein stability index does the source give for YPEQCKGFHKAGSMLPPVNFSIVP [S5C] here?
Answer: 1.96

Question: For YPEQPKGFHKAGSMLPPVNFSIVP [S5P], which protein stability index is on record?
Answer: 2.15

Question: For YPEQEKGFHKAGSMLPPVNFSIVP [S5E], which protein stability index is on record?
Answer: 2.69

Question: Which protein stability index does the source give for YPEQLKGFHKAGSMLPPVNFSIVP [S5L] here?
Answer: 2.15

Question: Which protein stability index does the source give for YPEQQKGFHKAGSMLPPVNFSIVP [S5Q] here?
Answer: 2.55

Question: Which protein stability index does the source give for YPEQAKGFHKAGSMLPPVNFSIVP [S5A] here?
Answer: 2.17

Question: With YPVQSKGFHKAGSMLPPVNFSIVP [E3V] as the variant, how does the protein stability index read?
Answer: 1.76

Question: With YPWQSKGFHKAGSMLPPVNFSIVP [E3W] as the variant, how does the protein stability index read?
Answer: 2.01

Question: With YPTQSKGFHKAGSMLPPVNFSIVP [E3T] as the variant, how does the protein stability index read?
Answer: 2.02

Question: For YPYQSKGFHKAGSMLPPVNFSIVP [E3Y], which protein stability index is on record?
Answer: 2.03

Question: For YPEQSKGNHKAGSMLPPVNFSIVP [F8N], which protein stability index is on record?
Answer: 3.83

Question: For YPEQSKGVHKAGSMLPPVNFSIVP [F8V], which protein stability index is on record?
Answer: 2.86

Question: For YPEQSKGHHKAGSMLPPVNFSIVP [F8H], which protein stability index is on record?
Answer: 3.07

Question: With YPEQSKGYHKAGSMLPPVNFSIVP [F8Y] as the variant, how does the protein stability index read?
Answer: 1.97

Question: With YPEQSKGCHKAGSMLPPVNFSIVP [F8C] as the variant, how does the protein stability index read?
Answer: 2.78

Question: Which protein stability index does the source give for YPEQSKGIHKAGSMLPPVNFSIVP [F8I] here?
Answer: 3.44

Question: For YPEQSKGLHKAGSMLPPVNFSIVP [F8L], which protein stability index is on record?
Answer: 2.9

Question: For YPEQSKGQHKAGSMLPPVNFSIVP [F8Q], which protein stability index is on record?
Answer: 3.39

Question: With YPEQSKGWHKAGSMLPPVNFSIVP [F8W] as the variant, how does the protein stability index read?
Answer: 3.05

Question: Which protein stability index does the source give for YPEQSKGTHKAGSMLPPVNFSIVP [F8T] here?
Answer: 3.18

Question: Which protein stability index does the source give for YPEQSKGMHKAGSMLPPVNFSIVP [F8M] here?
Answer: 2.43

Question: For YPEQSKGAHKAGSMLPPVNFSIVP [F8A], which protein stability index is on record?
Answer: 3.6

Question: Which protein stability index does the source give for YPEQSKGGHKAGSMLPPVNFSIVP [F8G] here?
Answer: 3.58

Question: Which protein stability index does the source give for YPEQSKGSHKAGSMLPPVNFSIVP [F8S] here?
Answer: 3.57

Question: For YPEQSKGKHKAGSMLPPVNFSIVP [F8K], which protein stability index is on record?
Answer: 3.32

Question: Which protein stability index does the source give for YPEQSKGRHKAGSMLPPVNFSIVP [F8R] here?
Answer: 3.17

Question: Which protein stability index does the source give for YPEQSKGEHKAGSMLPPVNFSIVP [F8E] here?
Answer: 3.69

Question: For YPEQSKGPHKAGSMLPPVNFSIVP [F8P], which protein stability index is on record?
Answer: 3.39

Question: With YPEQSKGDHKAGSMLPPVNFSIVP [F8D] as the variant, how does the protein stability index read?
Answer: 4.19

Question: For YPEQSKGFHKLGSMLPPVNFSIVP [A11L], which protein stability index is on record?
Answer: 1.55

Question: With YPEQSKGFHKPGSMLPPVNFSIVP [A11P] as the variant, how does the protein stability index read?
Answer: 2.19

Question: For YPEQSKGFHKTGSMLPPVNFSIVP [A11T], which protein stability index is on record?
Answer: 1.83

Question: With YPEQSKGFHKDGSMLPPVNFSIVP [A11D] as the variant, how does the protein stability index read?
Answer: 2.29

Question: Which protein stability index does the source give for YPEQSKGFHKNGSMLPPVNFSIVP [A11N] here?
Answer: 1.81

Question: Which protein stability index does the source give for YPEQSKGFHKVGSMLPPVNFSIVP [A11V] here?
Answer: 1.67

Question: With YPEQSKGFHKRGSMLPPVNFSIVP [A11R] as the variant, how does the protein stability index read?
Answer: 2.33

Question: Which protein stability index does the source give for YPEQSKGFHKCGSMLPPVNFSIVP [A11C] here?
Answer: 2.03

Question: Which protein stability index does the source give for YPEQSKGFHKHGSMLPPVNFSIVP [A11H] here?
Answer: 2.21

Question: With YPEQSKGFHKMGSMLPPVNFSIVP [A11M] as the variant, how does the protein stability index read?
Answer: 1.84

Question: Which protein stability index does the source give for YPEQSKGFHKGGSMLPPVNFSIVP [A11G] here?
Answer: 1.98

Question: With YPEQSKGFHKIGSMLPPVNFSIVP [A11I] as the variant, how does the protein stability index read?
Answer: 2.7

Question: For YPEQSKGFHKYGSMLPPVNFSIVP [A11Y], which protein stability index is on record?
Answer: 1.74

Question: Which protein stability index does the source give for YPEQSKGFHKKGSMLPPVNFSIVP [A11K] here?
Answer: 2.15

Question: With YPEQSKGFHKEGSMLPPVNFSIVP [A11E] as the variant, how does the protein stability index read?
Answer: 2.78

Question: With YPEQSKGFHKWGSMLPPVNFSIVP [A11W] as the variant, how does the protein stability index read?
Answer: 1.82

Question: With YPEQSKGFHKFGSMLPPVNFSIVP [A11F] as the variant, how does the protein stability index read?
Answer: 2.1

Question: With YPEQSKGFHKSGSMLPPVNFSIVP [A11S] as the variant, how does the protein stability index read?
Answer: 1.78

Question: With YPEQSKGFHKQGSMLPPVNFSIVP [A11Q] as the variant, how does the protein stability index read?
Answer: 2.17
